One may read the Kd as a measure of binding affinity in units of concentration.

This assay concerns the target RSV F A strain Viral Protein (Respiratory Syncytial Virus A strain). Kind of assay: SPR.

With Palivizumab, the Kd stood at 0.26 nM.

For the origin of these results see patent publication US20220387579A1.
